Results on three sequences are retold here after the supplement of paper PMC6379048.

Holding throughout (assay): EC50 of free RNA motif oligo competing protein binding to immobilised probe
One series deals with TSN (UniProt Q15631). In short, it runs like this:
(§1)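 Kd was calculated as EC50, taken from a four-parameter log-logistic fit, multiplied by a protein-dependent depletion factor. The assay used HEK293-FT lysate (2.5 mg protein/well) pre-incubated for 1 h at 4°C with free RNA oligos (0 nM to 30 μM), then incubated for 30 min at 4°C with the matching oligos bound through a 5′-amino-C6 linker to NHS-Sepharose beads. Bound proteins were measured by label-free LC-MS/MS and normalised to the control.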

The target of a further series is T1, RBM7 (UniProt Q9Y580).
T1 sequence: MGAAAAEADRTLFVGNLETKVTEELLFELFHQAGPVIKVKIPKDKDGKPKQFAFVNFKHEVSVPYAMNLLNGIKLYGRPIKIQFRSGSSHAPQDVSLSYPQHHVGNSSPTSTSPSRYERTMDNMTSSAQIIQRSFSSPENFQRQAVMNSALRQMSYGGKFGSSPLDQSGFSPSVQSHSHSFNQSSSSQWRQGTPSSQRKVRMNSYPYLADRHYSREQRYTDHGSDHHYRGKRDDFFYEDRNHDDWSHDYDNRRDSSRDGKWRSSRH
In short, it runs like this:
as §1

The target in the next series is RPS20 (UniProt P60866). In short, it runs like this: as §1
The next series deals with MSI1 (UniProt O43347). In short, it runs like this: as §1
MSI1, sequence (O43347 whole entry): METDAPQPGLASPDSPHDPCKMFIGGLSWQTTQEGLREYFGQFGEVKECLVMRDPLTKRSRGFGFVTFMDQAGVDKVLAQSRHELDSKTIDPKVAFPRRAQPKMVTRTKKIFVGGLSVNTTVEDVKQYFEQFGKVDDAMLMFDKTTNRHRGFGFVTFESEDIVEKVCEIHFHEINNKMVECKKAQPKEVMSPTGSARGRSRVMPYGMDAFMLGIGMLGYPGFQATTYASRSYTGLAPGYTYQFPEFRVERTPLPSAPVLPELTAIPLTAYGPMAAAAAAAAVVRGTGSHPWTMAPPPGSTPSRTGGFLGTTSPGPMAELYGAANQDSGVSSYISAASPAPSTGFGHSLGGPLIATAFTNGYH
The next series concerns the target T2, HNRNPDL (UniProt O14979).
T2 sequence: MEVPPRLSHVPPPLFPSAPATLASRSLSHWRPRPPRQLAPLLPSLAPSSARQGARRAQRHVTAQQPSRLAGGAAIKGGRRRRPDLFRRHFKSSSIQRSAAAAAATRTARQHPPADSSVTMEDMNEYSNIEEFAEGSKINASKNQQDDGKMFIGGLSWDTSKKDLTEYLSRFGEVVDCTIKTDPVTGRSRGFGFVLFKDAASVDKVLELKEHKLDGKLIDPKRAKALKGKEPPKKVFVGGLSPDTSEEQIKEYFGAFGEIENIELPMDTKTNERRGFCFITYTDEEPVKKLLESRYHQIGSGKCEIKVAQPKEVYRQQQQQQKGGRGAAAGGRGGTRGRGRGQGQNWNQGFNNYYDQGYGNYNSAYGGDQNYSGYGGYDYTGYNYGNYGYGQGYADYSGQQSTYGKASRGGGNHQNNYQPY
In short, it runs like this:
as §1

In the next series the target is T3, DAZAP1 (UniProt Q96EP5).
T3 sequence: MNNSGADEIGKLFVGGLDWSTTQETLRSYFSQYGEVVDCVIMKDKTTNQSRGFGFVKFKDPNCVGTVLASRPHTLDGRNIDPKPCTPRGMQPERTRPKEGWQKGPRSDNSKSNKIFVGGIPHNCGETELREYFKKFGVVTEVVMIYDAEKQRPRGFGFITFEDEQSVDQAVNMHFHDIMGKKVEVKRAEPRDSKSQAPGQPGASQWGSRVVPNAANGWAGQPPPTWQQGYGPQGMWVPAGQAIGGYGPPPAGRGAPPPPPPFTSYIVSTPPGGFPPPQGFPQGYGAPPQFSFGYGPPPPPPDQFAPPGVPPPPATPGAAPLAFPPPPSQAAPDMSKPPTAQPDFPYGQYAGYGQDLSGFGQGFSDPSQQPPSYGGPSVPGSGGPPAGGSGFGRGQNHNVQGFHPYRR
In short, it runs like this:
as §1

The target of a further series is T4, HNRNPD (UniProt Q14103).
T4 sequence: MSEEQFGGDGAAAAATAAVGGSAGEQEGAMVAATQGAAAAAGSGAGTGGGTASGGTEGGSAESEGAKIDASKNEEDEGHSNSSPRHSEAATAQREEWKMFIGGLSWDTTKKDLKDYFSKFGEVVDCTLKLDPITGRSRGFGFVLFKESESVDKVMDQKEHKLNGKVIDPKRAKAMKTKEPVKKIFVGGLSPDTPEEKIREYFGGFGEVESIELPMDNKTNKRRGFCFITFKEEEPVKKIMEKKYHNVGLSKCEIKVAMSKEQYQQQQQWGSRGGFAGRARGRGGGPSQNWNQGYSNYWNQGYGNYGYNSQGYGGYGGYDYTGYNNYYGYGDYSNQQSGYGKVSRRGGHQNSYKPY
In short, it runs like this: as §1

For a further series, the target named is T5, SRSF3 (UniProt P84103).
T5 sequence: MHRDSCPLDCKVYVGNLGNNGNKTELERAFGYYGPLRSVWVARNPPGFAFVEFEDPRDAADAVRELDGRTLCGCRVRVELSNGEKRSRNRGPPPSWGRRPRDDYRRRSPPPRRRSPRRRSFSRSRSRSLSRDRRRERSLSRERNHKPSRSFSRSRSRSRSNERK
In short, it runs like this:
as §1

A further series has as its target T6, FUBP3 (UniProt Q96I24).
T6 sequence: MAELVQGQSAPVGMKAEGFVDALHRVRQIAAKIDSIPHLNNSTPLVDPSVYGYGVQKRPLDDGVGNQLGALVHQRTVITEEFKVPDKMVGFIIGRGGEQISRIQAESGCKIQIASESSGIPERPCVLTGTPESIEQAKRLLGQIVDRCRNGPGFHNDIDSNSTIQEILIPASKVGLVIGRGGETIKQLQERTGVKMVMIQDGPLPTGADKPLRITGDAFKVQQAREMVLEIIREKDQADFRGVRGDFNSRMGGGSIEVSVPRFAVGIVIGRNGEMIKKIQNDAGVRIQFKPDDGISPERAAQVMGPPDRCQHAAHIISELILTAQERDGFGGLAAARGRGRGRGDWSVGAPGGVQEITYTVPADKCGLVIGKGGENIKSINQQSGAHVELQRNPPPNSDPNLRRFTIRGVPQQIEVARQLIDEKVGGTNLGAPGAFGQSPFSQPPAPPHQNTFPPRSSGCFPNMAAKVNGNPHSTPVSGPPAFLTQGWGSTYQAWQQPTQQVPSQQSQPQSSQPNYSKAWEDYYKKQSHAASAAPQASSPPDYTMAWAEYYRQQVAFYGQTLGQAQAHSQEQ
In short, it runs like this: as §1

TSN, sequence (Q15631 whole entry): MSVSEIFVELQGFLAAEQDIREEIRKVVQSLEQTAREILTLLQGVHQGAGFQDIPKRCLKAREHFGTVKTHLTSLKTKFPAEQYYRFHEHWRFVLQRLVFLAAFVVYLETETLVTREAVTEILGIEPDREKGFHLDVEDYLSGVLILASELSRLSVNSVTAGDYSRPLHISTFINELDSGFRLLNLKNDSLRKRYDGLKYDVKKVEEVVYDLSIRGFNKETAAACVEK

A word on the EC50: it is the concentration giving half of the maximal effect. Low values mean a more potent agent, high ones a less potent agent. As for AAUAAA, the EC50 with TSN was 0.0584 µM; with RBM7, 1.93 µM; with RPS20, 3.8 µM; with MSI1, 3.5 µM; with HNRNPDL, 2.09 µM; with DAZAP1, 1.24 µM. Besides, the EC50 with HNRNPD turned out to be 6.52 µM; with SRSF3, 3.03 µM; in the series with FUBP3 it was 2.15 µM.
Consider CUGUCCU, for which the EC50 in the series with RPS20 amounted to 0.171 µM; with SRSF3, 2.62 µM.
For the sequence UAUUUAU, the EC50 in the series with TSN is 0.0752 µM; with RBM7, 0.312 µM; with MSI1, 0.487 µM; in the series with HNRNPDL, 3.48 µM; in the series with DAZAP1, 1.22 µM; with HNRNPD, 0.653 µM. In the series with FUBP3, this sequence had an EC50 of 0.802 µM.
